In this assay the target is Survivin full length (UniProt O15392 1-142). Briefly: ITC.
Survivin full length, sequence (O15392 whole entry): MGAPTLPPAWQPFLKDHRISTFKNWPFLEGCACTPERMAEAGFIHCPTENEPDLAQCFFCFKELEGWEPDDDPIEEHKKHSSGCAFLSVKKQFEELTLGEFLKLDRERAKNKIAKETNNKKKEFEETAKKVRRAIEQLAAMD

As usually defined, the Kd is the equilibrium constant for the complex coming apart. A lower Kd goes with a tighter complex. For the molecule AKER [Sgo1_(AKER) peptide], binding was put at a Kd of 11.6 µM.
